Reference: article PMC4987513, “Phytochrome B and REVEILLE1/2-mediated signalling controls seed dormancy and germination in Arabidopsis”

Tests used:
Details in all cases: protein: recombinant; tags: His; blunt
HIS-RVE1 [1] = target: T1, HIS-RVE1 (Arabidopsis thaliana, UniProt F4KGY6 1-387); test: EMSA; LightShift Chemiluminescent EMSA Kit (Pierce) per manufacturer, 5% polyacrylamide gel; buffer, salt, pH and temperature not stated
HIS-RVE1 [2] = target: T1, HIS-RVE1; test: competition; unlabelled 50x excess vs biotin-E4 probe; no effect on shift; LightShift Chemiluminescent EMSA Kit (Pierce) per manufacturer, 5% polyacrylamide gel; buffer, salt, pH and temperature not stated
HIS-RVE1 [3] = target: T1, HIS-RVE1; test: competition; unlabelled 50x excess vs biotin-E3 probe; no effect on shift; LightShift Chemiluminescent EMSA Kit (Pierce) per manufacturer, 5% polyacrylamide gel; buffer, salt, pH and temperature not stated

T1 sequence (F4KGY6 whole entry): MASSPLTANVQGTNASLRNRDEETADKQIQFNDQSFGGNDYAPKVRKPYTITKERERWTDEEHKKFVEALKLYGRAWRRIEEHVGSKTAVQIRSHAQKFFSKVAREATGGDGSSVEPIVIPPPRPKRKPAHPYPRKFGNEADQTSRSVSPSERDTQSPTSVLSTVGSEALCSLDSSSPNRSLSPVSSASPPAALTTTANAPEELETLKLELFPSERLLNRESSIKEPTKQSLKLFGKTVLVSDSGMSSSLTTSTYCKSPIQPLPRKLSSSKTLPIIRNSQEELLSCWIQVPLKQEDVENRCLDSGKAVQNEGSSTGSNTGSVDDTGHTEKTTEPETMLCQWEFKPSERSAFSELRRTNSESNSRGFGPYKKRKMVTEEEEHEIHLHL

B1: GA3ox2 E4 (3 copies) WT (dsDNA)
DNA 1: AAGTATCATATCATACCAAAAAGTATCATATCATACCAAAAAGTATCATATCATACCAAA
DNA 2: TTTGGTATGATATGATACTTTTTGGTATGATATGATACTTTTTGGTATGATATGATACTT
binding result (HIS-RVE1 [1]): binds

B2: GA3ox2 E3 (3 copies) WT (dsDNA)
DNA 1: GTTTAACGATATTAGTTTTTGTTTAACGATATTAGTTTTTGTTTAACGATATTAGTTTTT
DNA 2: AAAAACTAATATCGTTAAACAAAAACTAATATCGTTAAACAAAAACTAATATCGTTAAAC
binding result (HIS-RVE1 [1]): binds

B3: GA3ox2 E4 (3 copies) mutant (dsDNA)
DNA 1: AAGTACGTCTCAGTACCAAAAAGTACGTCTCAGTACCAAAAAGTACGTCTCAGTACCAAA
DNA 2: TTTGGTACTGAGACGTACTTTTTGGTACTGAGACGTACTTTTTGGTACTGAGACGTACTT
binding result (HIS-RVE1 [2]): no binding

B4: GA3ox2 E3 (3 copies) mutant (dsDNA)
DNA 1: GTTTAACGGGATAGGTTTTTGTTTAACGGGATAGGTTTTTGTTTAACGGGATAGGTTTTT
DNA 2: AAAAACCTATCCCGTTAAACAAAAACCTATCCCGTTAAACAAAAACCTATCCCGTTAAAC
binding result (HIS-RVE1 [3]): no binding
